Measurements reported in the supplement of paper PMC9112550, “Optimization of the antimicrobial peptide Bac7 by deep mutational scanning” (BMC Biology, 2022).

Test system: Escherichia coli TOP10
Experiment: shrunken log2 fold change of peptide-encoding DNA abundance (4.5 h post-induction vs induction); higher = less antimicrobial activity (less host growth inhibition)
Conditions: time post-induction: 4.5 h; library: site-saturation at positions 5, 18, 19, 20
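Note: peptides expressed intracellularly from a pBAD plasmid library in pooled LB shake-flask culture, induced with 0.3% L-arabinose, DNA abundance read by NGS, three biological replicates, DESeq2 with apeglm shrinkage.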

| Sequence | shrunken log2 fold change |
| --- | --- |
| RRIRPRPPRLPRPRPRPEPLPRP | 0.0833 |
| RRIRTRPPRLPRPRPRPRKDPRP | -0.0522 |
| RRIRARPPRLPRPRPRPSPYPRP | -0.333 |
| RRIRNRPPRLPRPRPRPCSSPRP | -0.0135 |
| RRIRHRPPRLPRPRPRPVHRPRP | -0.143 |
| RRIRERPPRLPRPRPRPHNHPRP | -0.734 |
| RRIRMRPPRLPRPRPRPHWAPRP | 0.00824 |
| RRIRNRPPRLPRPRPRPSPPPRP | -0.0562 |
| RRIRMRPPRLPRPRPRPWWPPRP | 0.445 |
| RRIRNRPPRLPRPRPRPRAVPRP | 1.21 |
| RRIRMRPPRLPRPRPRPCIYPRP | 0.0933 |
| RRIRCRPPRLPRPRPRPTTLPRP | -0.219 |
| RRIRTRPPRLPRPRPRPEKQPRP | -0.0379 |
| RRIRNRPPRLPRPRPRPFYHPRP | -0.0822 |
| RRIRGRPPRLPRPRPRPDSSPRP | 0.217 |
| RRIRHRPPRLPRPRPRPYKFPRP | -0.0481 |
| RRIRYRPPRLPRPRPRPHSDPRP | -0.0292 |
| RRIRMRPPRLPRPRPRPRNAPRP | 2.06 |
| RRIRPRPPRLPRPRPRPCASPRP | -0.0883 |
| RRIRIRPPRLPRPRPRPSSEPRP | -0.299 |
| RRIRFRPPRLPRPRPRPVLVPRP | -0.288 |
| RRIRERPPRLPRPRPRPWCVPRP | -0.94 |
| RRIRRRPPRLPRPRPRPVVCPRP | 0.0897 |
| RRIRLRPPRLPRPRPRPMPPPRP | 0.15 |
| RRIRERPPRLPRPRPRPPKAPRP | 0.312 |

| Sequence | shrunken log2 fold change |
| --- | --- |
| RRIRERPPRLPRPRPRPMGSPRP | 0.00489 |
| RRIRKRPPRLPRPRPRPTKGPRP | 0.0795 |
| RRIRSRPPRLPRPRPRPKKMPRP | -0.178 |
| RRIRPRPPRLPRPRPRPIVPPRP | -0.208 |
| RRIRWRPPRLPRPRPRPGVDPRP | 0.371 |
| RRIRNRPPRLPRPRPRPDGQPRP | -0.0321 |
| RRIRARPPRLPRPRPRPPGGPRP | 0.864 |
| RRIRCRPPRLPRPRPRPTRMPRP | 0.0511 |
| RRIRSRPPRLPRPRPRPVGYPRP | 0.093 |
| RRIRQRPPRLPRPRPRPANKPRP | -0.397 |
| RRIRDRPPRLPRPRPRPENNPRP | 0.264 |
| RRIRNRPPRLPRPRPRPYDEPRP | -0.0237 |
| RRIRMRPPRLPRPRPRPQQAPRP | 0.0303 |
| RRIRYRPPRLPRPRPRPFVSPRP | 0.00884 |
| RRIRRRPPRLPRPRPRPPMLPRP | 0.317 |
| RRIRNRPPRLPRPRPRPMDSPRP | -0.0507 |
| RRIRQRPPRLPRPRPRPQKWPRP | 0.0876 |
| RRIRWRPPRLPRPRPRPFKMPRP | -0.0125 |
| RRIRHRPPRLPRPRPRPTDWPRP | 0.223 |
| RRIRDRPPRLPRPRPRPEDEPRP | 1.76 |
| RRIRARPPRLPRPRPRPITIPRP | 0.222 |
| RRIRYRPPRLPRPRPRPKNDPRP | -0.737 |
| RRIRSRPPRLPRPRPRPNAQPRP | 0.0609 |
| RRIRIRPPRLPRPRPRPYGEPRP | -0.148 |
| RRIRCRPPRLPRPRPRPEQEPRP | -0.0332 |

| Sequence | shrunken log2 fold change |
| --- | --- |
| RRIRDRPPRLPRPRPRPQIVPRP | -0.00245 |
| RRIRSRPPRLPRPRPRPVTNPRP | -0.0242 |
| RRIRKRPPRLPRPRPRPESRPRP | 0.625 |
| RRIRNRPPRLPRPRPRPVMKPRP | 0.0939 |
| RRIRERPPRLPRPRPRPAHYPRP | -0.148 |
| RRIRGRPPRLPRPRPRPPQWPRP | 0.801 |
| RRIRHRPPRLPRPRPRPSCYPRP | -1.1 |
| RRIRGRPPRLPRPRPRPWNQPRP | -0.139 |
| RRIRPRPPRLPRPRPRPGRKPRP | 0.199 |
| RRIRVRPPRLPRPRPRPWENPRP | -0.0208 |
| RRIRRRPPRLPRPRPRPYMQPRP | -0.264 |
| RRIRVRPPRLPRPRPRPCVWPRP | -0.0237 |
| RRIRDRPPRLPRPRPRPVEIPRP | -0.0399 |
| RRIRCRPPRLPRPRPRPHEDPRP | -0.157 |
| RRIRPRPPRLPRPRPRPHNTPRP | -0.481 |
| RRIRPRPPRLPRPRPRPYIPPRP | -0.719 |
| RRIRNRPPRLPRPRPRPPWFPRP | 0.349 |
| RRIRARPPRLPRPRPRPAKDPRP | 0.316 |
| RRIRLRPPRLPRPRPRPHYIPRP | -0.615 |
| RRIRTRPPRLPRPRPRPYVNPRP | -0.189 |
| RRIRERPPRLPRPRPRPQRKPRP | 0.0503 |
| RRIRPRPPRLPRPRPRPYGFPRP | -0.426 |
| RRIRVRPPRLPRPRPRPMMCPRP | -0.00174 |
| RRIRVRPPRLPRPRPRPTWLPRP | 0.318 |
| RRIRTRPPRLPRPRPRPMMVPRP | -0.18 |

| Sequence | shrunken log2 fold change |
| --- | --- |
| RRIRGRPPRLPRPRPRPKNDPRP | 0.698 |
| RRIRSRPPRLPRPRPRPRCPPRP | 0.177 |
| RRIRSRPPRLPRPRPRPHAYPRP | 0.0215 |
| RRIRNRPPRLPRPRPRPCMHPRP | -0.0807 |
| RRIRCRPPRLPRPRPRPHTKPRP | -0.309 |
| RRIRGRPPRLPRPRPRPFGFPRP | 0.828 |
| RRIRIRPPRLPRPRPRPSCNPRP | -0.576 |
| RRIRKRPPRLPRPRPRPMFMPRP | -0.116 |
| RRIRKRPPRLPRPRPRPEIIPRP | -0.0419 |
| RRIRMRPPRLPRPRPRPGHSPRP | 0.182 |
| RRIRMRPPRLPRPRPRPNGLPRP | 0.062 |
| RRIRQRPPRLPRPRPRPVIHPRP | -0.455 |
| RRIRGRPPRLPRPRPRPEFNPRP | 0.669 |
| RRIRSRPPRLPRPRPRPHHKPRP | -0.564 |
| RRIRDRPPRLPRPRPRPMPWPRP | -0.0438 |
| RRIRLRPPRLPRPRPRPADRPRP | -0.0121 |
| RRIRNRPPRLPRPRPRPYLYPRP | -0.317 |
| RRIRGRPPRLPRPRPRPKFEPRP | 0.411 |
| RRIRIRPPRLPRPRPRPSKLPRP | -1.04 |
| RRIRLRPPRLPRPRPRPCRTPRP | -0.66 |
| RRIRERPPRLPRPRPRPPYPPRP | -0.32 |
| RRIRGRPPRLPRPRPRPHLAPRP | 0.601 |
| RRIRNRPPRLPRPRPRPWDKPRP | 0.0447 |
| RRIRRRPPRLPRPRPRPQDNPRP | -0.668 |
| RRIRIRPPRLPRPRPRPHCFPRP | -0.824 |

| Sequence | shrunken log2 fold change |
| --- | --- |
| RRIRCRPPRLPRPRPRPYFWPRP | -0.347 |
| RRIRVRPPRLPRPRPRPMTEPRP | 0.0198 |
| RRIRKRPPRLPRPRPRPESSPRP | -0.000321 |
| RRIRARPPRLPRPRPRPEQNPRP | 0.928 |
| RRIRIRPPRLPRPRPRPCSEPRP | -0.0312 |
| RRIRKRPPRLPRPRPRPETKPRP | 0.106 |
| RRIRFRPPRLPRPRPRPQKAPRP | 0.0467 |
| RRIRVRPPRLPRPRPRPHQWPRP | -0.239 |
| RRIRVRPPRLPRPRPRPTEHPRP | -0.0827 |
| RRIRKRPPRLPRPRPRPSGAPRP | 0.539 |
| RRIRGRPPRLPRPRPRPYPYPRP | -0.095 |
| RRIRDRPPRLPRPRPRPIMIPRP | -0.408 |
| RRIRNRPPRLPRPRPRPTFYPRP | -0.376 |
| RRIRSRPPRLPRPRPRPRQAPRP | -0.0163 |
| RRIRIRPPRLPRPRPRPRPHPRP | 1.98 |
| RRIRSRPPRLPRPRPRPNWSPRP | -0.249 |
| RRIRKRPPRLPRPRPRPYTCPRP | -0.175 |
| RRIRRRPPRLPRPRPRPAGHPRP | 0.187 |
| RRIRLRPPRLPRPRPRPQMIPRP | -0.173 |
| RRIRGRPPRLPRPRPRPKGGPRP | 0.901 |
| RRIRCRPPRLPRPRPRPNEIPRP | -0.0995 |
| RRIRPRPPRLPRPRPRPAFPPRP | 0.409 |
| RRIRVRPPRLPRPRPRPCDLPRP | -0.238 |
| RRIRTRPPRLPRPRPRPKGMPRP | 0.138 |
| RRIRWRPPRLPRPRPRPPQWPRP | 0.179 |
